Laboratory results reported in US20090304580A1.

Experiments:
[1] = biological target: IMP-288 di-HSG hapten-peptide, DOTA-D-Tyr-D-Lys(HSG)-D-Glu-D-Lys(HSG)-NH2; assay: size-exclusion elution of 111In-IMP-288 with TF10
[2] = biological target: PAM4 antigen (human pancreatic cancer mucin, CaPan1) (human); assay: radiolabelled TF10 mixed with mucin, size-exclusion analysis
[3] = biological target: PAM4 antigen (human pancreatic cancer mucin, CaPan1) (human); assay: size-exclusion elution of the 111In-IMP-288/TF10 complex with excess mucin
[4] = biological target: PAM4 antigen (human pancreatic cancer mucin, CaPan1) (human); assay: ELISA on target mucin antigen (FIG. 9)

percent bound [1]	immunoreactive fraction bound [2]	percent of TF10-bound peptide eluting at higher molecular weight with excess mucin [3]	EC50 [4]	Substance
90%	87%	92%	1.42 nM	TF10 bispecific ([hPAM4]2 x h679) trimeric DNL construct (bispecific antibody)
			1.83 nM	PAM4-F(ab')2 (antibody)
